According to patent publication US20210079084A1 (OPSIDIO, published 2021):
Substitutions are numbered along the chain they refer to.

B1: 5H10 VH2/VK2 (antibody, V domains shown)
VH: QVQLVQSGAEVKKPGSSVKISCKSSGYAFSSYWMNWVKQRPGQGLEWIGQIYPGDGDTHYNGKFKGKATLTADKSTSTAYMELSSLRSEDTAVYFCSSSNWVGSYWGQGTLVTVSS
VL: DVVMTQSPLSLPVTLGQPASISCKSSQSLLESDGKTYLNWLQQRPGQSPRRLIYLVSRLDSGVPDRFTGSGSGTDFTLKISRVEAEDVGVYYCWQGTHLPQTFGGGTKVEIK
notes: Humanized; Only variable regions are tied to the name
B2: 5H10 VH1/VK1 (antibody, V domains shown)
VH: B1 VH with V11L, R87T, T91S
VL: B1 VL with S10T, P12S
notes: as for B1
B3: 5H10 VH1/VK2 (antibody, V domains shown)
VH: B1 VH with V11L, R87T, T91S
VL: B1 VL
notes: as for B1
B4: 5H10 VH3/VK2 (antibody, V domains shown)
VH: B1 VH with I20V, K38R
VL: B1 VL
notes: as for B1
B5: 5H10 VH4/VK3 (antibody, V domains shown)
VH: B1 VH with I20V, K38R, K67R, A68V, L70I
VL: B1 VL with T68S
notes: as for B1
B6: 5H10 VH5/VK2 (antibody, V domains shown)
VH: B1 VH with I20V, K38R, K65Q, K67R, A68V, L70I, F95Y
VL: B1 VL
notes: as for B1
B7: 5H10 VH3/VK3 (antibody, V domains shown)
VH: B1 VH with I20V, K38R
VL: B1 VL with T68S
notes: as for B1
B8: 5H10 VH1/VK3 (antibody, V domains shown)
VH: B1 VH with V11L, R87T, T91S
VL: B1 VL with T68S
notes: as for B1
B9: 5H10 VH2/VK3 (antibody, V domains shown)
VH: B1 VH
VL: B1 VL with T68S
notes: as for B1
B10: 5H10 VH4/VK2 (antibody, V domains shown)
VH: B1 VH with I20V, K38R, K67R, A68V, L70I
VL: B1 VL
notes: as for B1
B11: 5H10 VH5/VK3 (antibody, V domains shown)
VH: B1 VH with I20V, K38R, K65Q, K67R, A68V, L70I, F95Y
VL: B1 VL with T68S
notes: as for B1
B12: 5H10 VH0/VK0 (chimeric 5H10) (antibody, V domains shown)
VH: B1 VH with V5Q, V11L, K12V, K13R, T76S, E82Q, S85R, R87T, T91S, S116A
VL: not shown
notes: also called chimeric antibody 5H10
B13: murine 5H10 antibody (antibody, V domains shown)
VH: B1 VH with V5Q, V11L, K12V, K13R, T76S, E82Q, S85R, R87T, T91S, S116A
VL: not shown
notes: Murine monoclonal from a hybridoma, kappa light chain; also called OpSCF; murine parent 5H10

Legend:
[1] = biological target: T1, human stem cell factor isoform SCF248 (human, UniProt P21583 26-273); experiment: binding score, flow cytometry on S1/S14 hSCF248 cells
T1 construct: also called hSCF248; soluble SCF

[2] = biological target: T2, human stem cell factor isoform SCF220 (human, UniProt P21583-2 26-245); experiment: flow cytometry on S1/S14 hSCF220 cells
T2 construct: whole, on cells; also called hSCF220; membrane SCF

[3] = biological target: T1, human stem cell factor isoform SCF248; experiment: flow cytometry on S1/S14 hSCF248 cells; printed as BC50 (50% maximal binding)
[4] = biological target: T2, human stem cell factor isoform SCF220; experiment: flow cytometry on the SCF220-expressing cell line
[5] = biological target: T2, human stem cell factor isoform SCF220; experiment: flow cytometry, directly labelled antibody on S1/S14 hSCF220 cells
Description: Binding of the labeled antibody to the cells was assessed by flow cytometry.

T1 sequence (P21583 26-273 limits assumed): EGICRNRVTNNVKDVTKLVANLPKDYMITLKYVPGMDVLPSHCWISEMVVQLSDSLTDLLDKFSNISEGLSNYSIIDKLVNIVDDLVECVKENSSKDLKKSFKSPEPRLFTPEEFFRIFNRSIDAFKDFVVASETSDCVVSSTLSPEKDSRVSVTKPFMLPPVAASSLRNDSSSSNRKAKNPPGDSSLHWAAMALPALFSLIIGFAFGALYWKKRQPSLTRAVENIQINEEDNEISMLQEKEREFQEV
T2 sequence (P21583 other isoform, or with tags, fused parts or gaps): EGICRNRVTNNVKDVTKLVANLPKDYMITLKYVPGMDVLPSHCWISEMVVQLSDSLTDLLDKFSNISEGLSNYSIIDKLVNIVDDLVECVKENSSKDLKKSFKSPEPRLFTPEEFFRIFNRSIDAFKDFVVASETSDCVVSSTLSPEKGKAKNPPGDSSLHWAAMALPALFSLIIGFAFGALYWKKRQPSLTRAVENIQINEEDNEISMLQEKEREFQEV

binding result [2]	also measured	Binder
	binding result [1]: binds	B1
	binding result [1]: binds	B2
	binding result [1]: binds	B3
no binding		B4
no binding		B5
no binding		B6
no binding	EC50 [3]: 0.9 µg/mL	B7
	binding result [4]: no binding	B8
	binding result [4]: no binding	B9
no binding		B10
no binding		B11
no binding		B12
	binding result [5]: no binding	B13
